Each block holds one molecule with its values, some of them ahead of it.
What was measured:
Megi [1] = biological target: T1, Megi (Homo sapiens, UniProt O43909); assay: Immunofluorescent nuclear analyses of Megi translocation (Cy3 with DAPI overlay); format: cell-based; settings: cells grown in serum-free medium with 150 μM Reg peptide; FIG. 8c, 8f
T1 construct: Megi protein is expressed in human pancreatic cancer cells; endogenous in cells
T1 sequence (O43909 1-919): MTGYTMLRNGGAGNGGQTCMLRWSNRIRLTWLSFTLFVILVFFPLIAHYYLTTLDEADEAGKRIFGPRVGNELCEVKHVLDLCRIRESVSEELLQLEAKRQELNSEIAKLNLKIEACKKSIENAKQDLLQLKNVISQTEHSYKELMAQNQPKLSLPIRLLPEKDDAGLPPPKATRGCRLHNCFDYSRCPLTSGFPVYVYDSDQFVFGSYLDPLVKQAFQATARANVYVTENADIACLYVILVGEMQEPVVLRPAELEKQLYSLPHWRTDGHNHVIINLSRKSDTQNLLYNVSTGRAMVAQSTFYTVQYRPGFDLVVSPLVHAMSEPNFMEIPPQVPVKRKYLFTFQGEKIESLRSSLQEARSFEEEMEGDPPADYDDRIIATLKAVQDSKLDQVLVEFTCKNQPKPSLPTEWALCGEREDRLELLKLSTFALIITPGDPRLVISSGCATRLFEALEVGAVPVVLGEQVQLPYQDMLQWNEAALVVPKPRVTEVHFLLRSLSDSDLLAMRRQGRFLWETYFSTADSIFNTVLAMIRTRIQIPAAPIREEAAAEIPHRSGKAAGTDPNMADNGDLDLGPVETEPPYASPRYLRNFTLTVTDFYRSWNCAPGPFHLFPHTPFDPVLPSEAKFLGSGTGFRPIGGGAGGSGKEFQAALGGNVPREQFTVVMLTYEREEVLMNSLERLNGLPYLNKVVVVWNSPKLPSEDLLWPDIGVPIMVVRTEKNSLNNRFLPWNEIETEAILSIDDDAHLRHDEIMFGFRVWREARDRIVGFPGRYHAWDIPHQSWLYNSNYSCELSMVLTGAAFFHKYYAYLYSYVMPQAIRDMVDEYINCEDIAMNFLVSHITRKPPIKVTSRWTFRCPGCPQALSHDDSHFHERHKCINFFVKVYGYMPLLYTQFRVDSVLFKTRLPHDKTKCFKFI
From the text: Immunofluorescent analyses of Megi are shown in the upper panels (FIG. 8a, FIG. 8b and FIG. 8c) indicated by the Cy3 immunofluorescent staining of Megi. […] The arrows in FIG. 8a and FIG. 8d delineate the cell borders, whereas the nuclei are shown in light grey contrast in FIG. 8d.
The middle images (FIG. 8b and FIG. 8e) are cells grown in SFM. Megi is localized in the cytoplasm, as indicated by cytoplasmic Cy3 staining. The arrows in FIG. 8b and FIG. 8e show the lack of staining in the position of the nuclei. […] In the lower image (FIG. 80, there is an overlap of Megi-Cy3 staining and nuclear DAPI staining that corroborates that there is nuclear localization of Megi indicated by the arrows in FIG. 8f. In the lower image (FIG. 8f) of cells grown in SFM and Reg peptide, the arrows indicate the position of the nuclei, which now stains for Megi. Scale bar=20 μm in all images.
Immunofluorescent analyses are shown in the upper, panels (FIG. 8a, FIG. 8b and FIG. 8c) indicated by the Cy3 immunofluorescent staining of Megi. […]

Megi [2] = biological target: T1, Megi; assay: Western blot analysis of Megi in cytosolic and nuclear fractions of adenocarcinoma cells; format: cell-based; settings: Reg peptide 167 nM; 30 minutes; vs cells not treated with Reg peptide; FIG. 7g vs 7e
Method: The Western blot analysis of cytosolic and nuclear fractions isolated at the indicated time points with Reg peptide accelerating time of Megi translocation from the cell surface membrane to nucleus. Adenocarcinoma cells were seeded in T75 flasks in Dulbecco's Modified Eagle media containing 10% fetal bovine serum. The cells were incubated at […], 5% CO2 for 24 hours and then treated with Reg peptide at the final concentration of 167 nM. This treatment was performed once a day for four days. On the fifth day the cells were broken to obtain the cell lysates. In these cell extracts the total protein levels were determined, and 50 micrograms of total protein, were used to perform the western blot analysis. The samples containing 50 micrograms of proteins were diluted in loading buffer and loaded into each well of the gel. For gels run under reducing conditions, buffer also contained 5% of the reducing agent beta-mercaptoethanol
Analyses were performed from cytoplasmic extracts were obtained in 10 mM HEPES (pH 8.0), 1 mM EDTA, 1.5 mM MgCl2, 10 mM KCl, 0.5 mM DTT, 200 mM sucrose and 0.5% Nonidet P-40. Nuclear extracts were obtained in 20 mM HEPES (pH 7.9), 0.75 mM MgCl2, 210 mM NaCl, 50 mM KCl, 1 mM EDTA, 10% glycerol, and 0.5 mM of dithiothreitol. […] Secondary signals were developed with chemiluminescence substrate and analyzed by autoradiography.

Megi [3] = biological target: T1, Megi; assay: Cy3 immunofluorescent staining of Megi in human pancreatic adenocarcinoma cells; format: cell-based; settings: 167 nM Reg peptide added to human pancreatic adenocarcinoma cells; FIG. 6b vs 6a
Method: To determine the presence of Megi via immunofluorescence, a continuous tumor-cell line from a human carcinoma of the exocrine pancreas were cultured in Dulbecco's Modified Eagle Medium containing 4.5 g/L glucose, 1:5 g/L sodium bicarbonate, 4 mM L-glutamine, and 10% fetal bovine serum. Cells were seeded at 50% confluence in standard growth medium. Twenty-four hours after seeding, cells were differentiated in serum free medium. Cells were mounted on cover slips and fixed in 4% paraformaldehyde and permeabilized with 0:2% Triton X-100. After being washed and blocked, cells were incubated with rabbit polyclonal anti-Megi antibody and a CY3-conjugated goat-anti-rabbit labeled fluorescent antibody. Antibodies were used at a 1:200 dilution. Coverslips were mounted and staining was analyzed on a Zeiss Axiovert 220M microscope powered by Axiovision 4.0 software with Z-stack acquisition, 3D-deconvolution, and 4D rendering modules.
Utilizing Cy3 immunofluorescent staining of Megi in human pancreatic adenocarcinoma cells in standard medium, there is immunofluorescent staining of Megi (FIG. 6a), which is well-defined at the cell borders indicating surface expression of Megi on the plasma membrane with visibly undetectable levels of Megi in the nucleus. […]

rabbits = assay: Enzyme ImmunoAssay titers of polyclonal antibodies raised in rabbits to a Megi peptide; format: in vivo, rabbit; settings: for 50% titer: test bleed 31 days after day 0 and day 21 boosts, KLH-conjugated peptide, unconjugated screening antigen
Method: Data sets were taken from the bleed after the day 0 and day 21 boosts. The animals were injected with a peptide of SEQ ID NO: 4 and were conjugated to keyhole limpet hemocyanin (KLH). The screening antigen is not conjugated to KLH so that the response solely to the peptide and not to KLH can be identified. The 50% titer is a dilution value where the signal is half-way between the peak and the baseline, so the higher the dilution value (titer), the greater the response to the antigen. The positive control is an internal control that was generated from ovalbumin antibodies in rabbit. At a dilution of 1:759,000, the absorbance fell within a range of 0.45 to 0.9. In the case of the response to SEQ ID NO: 4, there was a high response. The data shown in FIG. 9 from the prebleed sample obtained on Dec. 8, 2010 was <100 (negative) for both rabbits, CD 153 and CD 154.

Megi receptor = settings: rat hippocampus; effect abolished by downregulating Megi by shRNA; cited from earlier work

subcellular localization of Megi (Megi [1]): translocation of Megi into the nucleus | nuclear levels of Megi (Megi nuclear translocation) (Megi [2]): higher nuclear levels of Megi
Molecule: Reg peptide: common Reg peptide sequence (SEQ ID NO: 10) selected from Reg1α, Reg1β, Reg3α and RegIV, synthesized by Bachem (IGLHDPTQGTEPNG)
cellular staining of Megi (Megi [3]): greater expression of Megi inside of the cell

50% titer (rabbits; rabbit CD 153): 36,000 | 50% titer (rabbits; rabbit CD 154): 125,000 | response to the antigen (rabbits; rabbits immunised with KLH-conjugated peptide): high response
Molecule: SEQ ID NO: 4: 20 amino acid Megi peptide (amino acids 17-36) used as immunogen to raise polyclonal antibodies in rabbits (CKKSIENAKQDLLQLKNVIS)

B1: recombinant Reg1α: recombinant regenerating islet-derived 1 alpha protein used by Van Ba on rat hippocampus (protein)
chain: QEAQTELPQARISCPEGTNAYRSYCYYFNEDRETWVDADLYCQNMNSGNLVSVLTQAEGAFVASLIKESGTDDFNVWIGLHDPKKNRRWHWSSGSLVSYKSWGIGAPSSVNPGYCVSLTSSTGFQKWKDVPCEDKFSFVCKFKN
neurite outgrowth (Megi receptor): increased neurite outgrowth

Reference: US20130216545A1, “Early Diagnosis and Novel Treatment of Cancer” (priority 2012, published 2013)
